Measurements: patent US20250171532A1 (NB HEALTH LABORATORY, published 2025)
Where two headings read alike, the source gives them in different places.

How the values were obtained:
[1] = target: T1, human LPA1 (human, UniProt Q92633 1-364); test: flow cytometry, human LPA1-stably expressing CHO cells, median fluorescence intensity
T1 construct: Untagged, on human LPA1-stably expressing CHO cells (CHO-K1); also the endogenous receptor on the human lung fibroblast line printed as IMIR-90; also called human lysophosphatidic acid receptor 1; hLPA1
T1 sequence (Q92633 whole entry): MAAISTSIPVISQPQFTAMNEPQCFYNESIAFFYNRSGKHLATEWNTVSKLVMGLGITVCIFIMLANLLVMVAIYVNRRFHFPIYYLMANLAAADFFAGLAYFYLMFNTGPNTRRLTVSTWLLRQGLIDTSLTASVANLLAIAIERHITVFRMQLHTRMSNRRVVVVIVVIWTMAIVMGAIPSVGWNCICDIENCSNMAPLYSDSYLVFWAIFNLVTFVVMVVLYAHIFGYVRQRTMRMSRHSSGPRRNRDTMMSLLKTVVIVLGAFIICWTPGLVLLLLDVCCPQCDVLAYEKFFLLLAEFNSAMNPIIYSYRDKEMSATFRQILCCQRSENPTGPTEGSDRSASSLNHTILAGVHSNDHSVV
Excerpt: (§1) The human LPA1-stably expressing CHO cell and the mouse LPA1-stably expressing CHO cell were washed with PBS, then detached from the cell culture dishes by an enzyme-free cell dissociation buffer (Thermo Fisher Scientific, Inc.), then washed with PBS, and then collected by centrifugation. The human LPA1-stably expressing CHO cell and the mouse LPA1-stably expressing CHO cell were suspended at 1×10⁷ cells/mL in Fc Block (Sci-Tech Biosciences, Inc.) diluted by 500 times in FACS buffer, and then allowed to stand at 4° C. for 30 minutes to block the cells. The cells were collected by centrifugation and suspended in FACS buffer at 4×10⁶ cells/mL, and this suspension was dispensed into a V-bottom 96-well plate (Thermo Fisher Scientific, Inc.) at 25 μL (1×10⁵ cells)/well. As primary antibodies, the eleven types of LPA1 antibodies produced and purified by the method described above and a mouse isotype control antibody (Fujifilm Wako Pure Chemicals Corporation) were diluted stepwise, which was added to each well at 25 μL/well, and allowed to stand at 4° C. for 1 hour. The cells were collected by centrifugation and washed with 120 μL of FACS buffer. This washing operation was repeated twice. To the cell sediment, 25 μL each of Goat Anti-Mouse IgG H&L (DyLight 650) (Abcam) that was a secondary antibody diluted by 500 times in FACS buffer was dispensed, then suspended, and then allowed to stand at 4° C. for 1 hour. The cells were washed twice, then suspended in 50 μL of FACS buffer, and the binding of antibodies to the cells was measured using a flow cytometer (Agilent Novocyte).
Subsequently, the binding activity of the human LPA1-stably expressing CHO cell to human LPA1 was measured according to the method in Example 6. A graph was created, in which a concentration of the antibody was plotted on the […] axis, and a median fluorescence intensity of the flow cytometer histogram was plotted on the horizontal axis. […] The intracellular cAMP signaling inhibitory activity was also measured according to the method in Example 7.

[2] = target: T1, human LPA1; test: cell-based or functional assay
[3] = target: T2, mouse LPA1 (mouse, UniProt P61793 1-364); test: flow cytometry, mouse LPA1-stably expressing CHO cells, median fluorescence intensity
T2 construct: Untagged, on mouse LPA1-stably expressing CHO cells (Flp-In-CHO); also called mLPA1
T2 sequence (P61793 whole entry): as the sequence (Q92633 whole entry) above, with I4A, I8S, P22Q, H40Y, I61V, E193D, N194H, I269V, S331N, T335N counted along it
Excerpt: as §1
(§2) A graph was created, in which a concentration of the antibody was plotted on the […] axis, and a median fluorescence intensity of the flow cytometer histogram was plotted on the horizontal axis. All of the eleven antibodies were confirmed to dose-dependently bind to the human LPA1-stably expressing CHO cell and the mouse LPA1-stably expressing CHO cell. The results of the binding of each antibody to the human LPA1-stably expressing CHO cell are presented in FIG. 2A to FIG. 2K, and the results of the binding of each antibody to the mouse LPA1-stably expressing CHO cell are presented in FIG. 3A to FIG. 3K.

[4] = target: T1, human LPA1; test: cell-based or functional assay; remark: listed apart in the source
[5] = target: T2, mouse LPA1; test: cell-based or functional assay
[6] = target: T3, human LPA2 with FLAG tag (human LPA2 gene transfected cell) (human, UniProt Q9HBW0 1-348); test: flow cytometry, transfected HEK293FT cells, histogram shift
T3 construct: also called EDG4; not shown: FLAG tag added at the 5' terminal of the gene
T3 sequence (Q9HBW0 other isoform, or with tags, fused parts or gaps): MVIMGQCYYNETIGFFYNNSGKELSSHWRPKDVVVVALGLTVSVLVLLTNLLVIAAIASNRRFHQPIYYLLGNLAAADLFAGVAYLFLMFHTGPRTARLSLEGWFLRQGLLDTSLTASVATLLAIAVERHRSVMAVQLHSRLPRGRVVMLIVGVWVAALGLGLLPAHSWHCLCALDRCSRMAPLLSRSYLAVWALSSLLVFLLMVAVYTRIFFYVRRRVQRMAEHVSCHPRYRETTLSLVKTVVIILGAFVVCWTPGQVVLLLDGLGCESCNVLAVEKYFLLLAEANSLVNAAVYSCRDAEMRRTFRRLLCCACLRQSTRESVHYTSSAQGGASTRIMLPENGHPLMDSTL
Protocol: (§3) BTEK293FT cell was transfected with 10 μg of an expression vector carrying each synthetic gene using Lipofectamine 2000, to prepare a human LPA1 gene transfected cell, a mouse LPA1 gene transfected cell, a human LPA2 gene transfected cell, a mouse LPA2 gene transfected cell, a human LPA3 gene transfected cell, and a mouse LPA3 gene transfected cell.
(§4) The next day, the cells were washed with PBS, then detached from the cell culture dishes by an enzyme-free cell dissociation buffer (Thermo Fisher Scientific, Inc.), then washed with PBS, and then collected by centrifugation. Goat serum (Thermo Fisher Scientific, Inc.) was diluted by 2 times in FACS buffer (PBS containing 1% o of FBS), into which the cells were suspended at 1×10⁷ cells/mL. This suspension was allowed to stand at 4° C. for 30 minutes to block the cells. The cells were collected by centrifugation and suspended in FACS buffer at 4×10⁶ cells/mL, and this suspension was dispensed into a V-bottom 96-well plate (Thermo Fisher Scientific, Inc.) at 25 μL (1×10⁵ cells)/well.
(§5) The cells were collected by centrifugation and washed with 120 μL of FACS buffer. This washing operation was repeated twice. To the cell sediment, 25 μL each of Goat Anti-Mouse IgG H&L (DyLight 650) (Abcam) that was a secondary antibody diluted by 500 times in FACS buffer was dispensed, then suspended, and then allowed to stand at 4° C. for 1 hour. The cells were washed twice, then suspended in 50 μL of FACS buffer, and the whole content thereof was transferred to a V-bottom 96-well plate (Greiner), to measure the binding of antibodies to the cells using a flow cytometer (Agilent Novocyte).

[7] = target: T4, mouse LPA2 with FLAG tag (mouse LPA2 gene transfected cell) (mouse, UniProt Q9JL06 1-348); test: as above
T4 construct: not shown: FLAG tag added at the 5' terminal of the gene
T4 sequence (Q9JL06 whole entry): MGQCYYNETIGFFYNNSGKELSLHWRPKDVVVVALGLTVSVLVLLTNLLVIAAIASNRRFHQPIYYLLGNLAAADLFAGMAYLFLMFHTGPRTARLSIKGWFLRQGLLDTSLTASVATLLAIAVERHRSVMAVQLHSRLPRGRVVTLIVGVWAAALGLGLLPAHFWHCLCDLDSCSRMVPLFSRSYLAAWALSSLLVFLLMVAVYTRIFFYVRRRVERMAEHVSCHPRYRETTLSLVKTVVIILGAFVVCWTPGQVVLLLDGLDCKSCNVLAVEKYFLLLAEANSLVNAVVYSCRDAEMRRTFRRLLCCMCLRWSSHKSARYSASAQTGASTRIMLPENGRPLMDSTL
Protocol: as §3, §4, §5

[8] = target: T5, human LPA3 with FLAG tag (human LPA3 gene transfected cell) (human, UniProt Q9UBY5 1-353); test: as above
T5 construct: also called EDG7; not shown: FLAG tag added at the 5' terminal of the gene
T5 sequence: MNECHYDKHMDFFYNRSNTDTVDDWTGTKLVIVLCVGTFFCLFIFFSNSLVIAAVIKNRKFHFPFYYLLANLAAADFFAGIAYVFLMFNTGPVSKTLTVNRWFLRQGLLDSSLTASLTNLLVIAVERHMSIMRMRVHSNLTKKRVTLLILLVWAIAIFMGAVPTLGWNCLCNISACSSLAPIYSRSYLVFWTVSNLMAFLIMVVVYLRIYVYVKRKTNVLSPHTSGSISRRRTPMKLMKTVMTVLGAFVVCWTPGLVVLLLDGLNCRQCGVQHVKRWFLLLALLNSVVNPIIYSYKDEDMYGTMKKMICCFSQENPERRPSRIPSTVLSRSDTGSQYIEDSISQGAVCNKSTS
Protocol: as §3, §4, §5

[9] = target: T6, mouse LPA3 with FLAG tag (mouse LPA3 gene transfected cell) (mouse, UniProt Q9EQ31 1-354); test: as above
T6 construct: not shown: FLAG tag added at the 5' terminal of the gene
T6 sequence: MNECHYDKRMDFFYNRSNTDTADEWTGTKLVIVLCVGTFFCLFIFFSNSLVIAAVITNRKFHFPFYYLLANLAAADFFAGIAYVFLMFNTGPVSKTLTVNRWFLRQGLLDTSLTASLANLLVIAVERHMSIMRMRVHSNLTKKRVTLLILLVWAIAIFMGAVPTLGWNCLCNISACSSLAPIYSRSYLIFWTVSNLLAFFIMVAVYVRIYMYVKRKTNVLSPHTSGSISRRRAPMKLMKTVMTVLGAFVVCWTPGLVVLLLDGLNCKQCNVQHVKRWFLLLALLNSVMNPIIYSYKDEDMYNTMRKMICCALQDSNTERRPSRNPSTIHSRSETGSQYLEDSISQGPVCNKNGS
Protocol: as §3, §4, §5

[10] = target: T1, human LPA1; test: cell-based or functional assay; remark: listed apart in the source
[11] = target: T2, mouse LPA1; test: cell-based or functional assay; remark: listed apart in the source
[12] = target: T1, human LPA1; test: flow cytometry, human LPA1-stably expressing CHO cells, median fluorescence intensity; remark: listed apart in the source
Excerpt: as §1, §2

Row | Binder | EC50 [1] | Intracellular cAMP signaling inhibition IC50 [2] | EC50 [3] | Intracellular cAMP signaling inhibition (Inhibition rate %/100 nM) [4] | Intracellular cAMP signaling inhibition (Inhibition rate %/100 nM) [5] | binding result [6] | binding result [7] | binding result [8] | binding result [9] | Intracellular cAMP signaling inhibition IC50 [10] | Intracellular cAMP signaling inhibition IC50 [11] | EC50 [12]
1 | h309-4-A-SS1 (antibody, human IgG1, kappa, L234A L235A, V domains shown, also called humanized anti-LPA1 antibody) VH: QVQLQESGPGLVKPSETLSLTCTASGYTFTSYGISWVRQTPGKGLEWIGEIYPRSGNTYYNEKFKGRATLSADKSKNQASLKLKSVTAADTAIYFCARESISRRLGWNFDVWGRGTLVTVSG VL: DIQMTQTPSSLSASVGDRVTITCRASENIYSFLAWYQQKPGEAPKRVVYNAKTLTEGVPSRFSGSGSGTDFTLTISSLQPEDFATYYCQHHYGPPLTFGQGTKLEIKR | 4.9 nM | 5.2 nM |  |  |  |  |  |  |  |  |  | 
2 | 210309-2-D (antibody, mouse IgG1, V domains shown, Mouse monoclonal from human LPA1 immunization) VH: QVQLQQSGAELARPGASVKLSCKASGYTFTSYGISWVKQRTGQGLEWIGEIYPRSGNTYYNEKVKGKATLTADKSSSTAYMELRSLTSEDSAVYFCARESIFLRLGWYFDVWGTGTTVTVSS VL: DIQMTQSPASLSASVGETVTITCRASDNIYRFLAWYQQKQGKSPQLLVYNAKTLAEGVPSRFSGSGTGTQFSLKINSLQPEDFGIYYCQHHYGPPLTFGAGTKLELK |  |  | 2.1 nM | 51% | 53% | no binding (tested: 25 g/mL (so in the source)) | no binding (tested: 25 g/mL (so in the source)) | no binding (tested: 25 g/mL (so in the source)) | no binding (tested: 25 g/mL (so in the source)) | 18 nM | 163 nM | 1.8 nM
3 | 211222-1-G (antibody, mouse IgG1, V domains shown, Mouse monoclonal from human LPA1 immunization) VH: QVQVQQSGAELARPGASVRLSCKASGYTFTSFGVNWVKQRTGQGLEWIGQIYPRTGTTYHNERFKGKATLTADKSSSTAYMELRSLTSEDSAVYFCAREGDRYSLAYWGQGTLVTVSA VL: DIQMTQSPASLSASVGETVTITCRASENIYRFLAWYQQKQGKSPQLLVYNAKTLVEGVPSRFSGSGSGTQFSLKINNLQPEDFGSYYCQHHYGIPLTFGAGTKLELK |  |  | 2.3 nM | 22% | 49% | no binding (tested: 25 g/mL (so in the source)) | no binding (tested: 25 g/mL (so in the source)) | no binding (tested: 25 g/mL (so in the source)) | no binding (tested: 25 g/mL (so in the source)) | 96.8 nM | 199 nM | 4.2 nM
4 | 210420-4-E (antibody, mouse IgG1, V domains shown, Mouse monoclonal from mouse LPA1 immunization) VH: QLHLQQSGAELARPGASVRLSCKASGYTFASFGISWVKQRTGQGLEYIGEIYPRSGTTYFNEKFRGKATLSADKSSSTAYMELRSLTSEDSAVYFCAREGVRRYAMDYWGQGTSVTVSS VL: DIQVTQSPASLSASVGETVTITCRASGNIYSFLAWYQQKQGKSPQLLVYNAKTLAEGVPSRFSGSGSGTQFSLKISSLQPEDFGSYYCQHHYGIPLTFGAGTKLDLK |  |  | 1.3 nM | 24% | 46% | no binding (tested: 25 g/mL (so in the source)) | no binding (tested: 25 g/mL (so in the source)) | no binding (tested: 25 g/mL (so in the source)) | no binding (tested: 25 g/mL (so in the source)) | 48.3 nM | 124 nM | 2 nM
5 | 210420-3-E (antibody, mouse IgG1, V domains shown, Mouse monoclonal from mouse LPA1 immunization) VH: QLQLQQSGAELARPGASVKLSCKASGYTFASFGISWVKQRAGQGLEYIGEIYPRSGTTYFNEKFRGKATLTADKSSSTAYMELRRLTSEDSAVYFCAREGVRRYAMDYWGQGTSVTVSS VL: DIQVTQSPASLSASVGETVTITCRASGNIYSFLAWYQQKQGKSPQLLVYNAKTLAEGVPSRFSGSGSGTQFSLKINSLQPEDFGSYYCQHHYGIPLTFGAGTKLDLK |  |  | 1 nM | 44% | 50% | no binding (tested: 25 g/mL (so in the source)) | no binding (tested: 25 g/mL (so in the source)) | no binding (tested: 25 g/mL (so in the source)) | no binding (tested: 25 g/mL (so in the source)) | 33.1 nM | 114 nM | 1.9 nM
6 | h309-4-A-BP1 (antibody, human IgG1, kappa, L234A L235A, V domains shown, also called humanized anti-LPA1 antibody) VH: QVQLVQSGAEVKKPGASVKVSCKASGYTFTSYGISWVRQAPGQGLEWMGEIYPRSGNTYYNEKFKGRVTLTADKSTSTAYMELRSLTSEDTAVYFCARESISRRLGWNFDVWGQGTTVTVSS VL: DIQMTQSPSSLSASVGDTVTITCRASENIYSFLAWYQQKPGKAPKLLIYNAKTLTEGVPSRFSGSGSGTHFSLTINSLQPEDFGIYYCQHHYGPPLTFGQGTKLEIKR | 4.3 nM | 4.4 nM |  |  |  |  |  |  |  |  |  | 
